Assay results taken from patent US20120053320A1 (BOARD OF TRUSTEES OF MICHIGAN STATE UNIVERSITY, published 2012).

Target: the molecule itself
Assay: SDS-PAGE, immunoblot and MALDI-TOF of purified and depolymerized pili (self-assembly)

B1: PilA pilin subunit of Geobacter sulfurreducens (mature PilA, ca. 6.5-7 kDa band from octyl-glucoside-depolymerized pili) (other)
chain: FTLIELLIVVAIIGILAAIAIPQFSAYRVKAYNSAASSDLRNLKTALESAFADDQTYPPES
notes: Native protein from strain PCA, denatured on SDS-PAGE and blotted; also called nanowire pilin subunit; PilA band
binding result: binds
